Data reported in US6072035.

Biological target: human IgE; monoclonal antibody SE44 (human) (UniProt P01854)
Assay: BIAcore, antibody captured by anti-human IgG, IgE SE44 as analyte

Ka | koff | kon | Binder
4.7e+09 M⁻¹ | 6.2e-05 s⁻¹ | 290000 M⁻¹ s⁻¹ | reshaped human C21 antibody C21-H1/L3 (antibody, V domains shown) VH: QVQLVQSGAEVKKPGASVKVSCKASGYTFSMYWLEWVKQRPGHGLEWVGEISPGTFTTNYNEKFKAKATFTADTSTNTAYMELSSLTSEDTAVYYCARFSHFSG VL: EIVLTQSPGTLSLSPGERATLSCRASQSIGTNIHWYQQKPGQAPRLLIKYASESISGIPSRFSGSGSGTDFTLTISRLEPEDFAMYYCQQSDSWPTTFGQGTKVEIK
1.6e+09 M⁻¹ | 0.000159 s⁻¹ | 260000 M⁻¹ s⁻¹ | reshaped human C21 antibody C21-Hay3/L3 (antibody, V domains shown) VH: QVQLVQSGAEVKKPGASVKVSCKASGYTFSMYWLEWVRQAPGQRLEWMGEISPGTFTTNYNEKFKARATFTADTSASTAYMELSSLRSEDTAVYYCARFSHFSGSNYDYFDYWGQGTLVTVSS VL: EIVLTQSPGTLSLSPGERATLSCRASQSIGTNIHWYQQKPGQAPRLLIKYASESISGIPSRFSGSGSGTDFTLTISRLEPEDFAMYYCQQSDSWPTTFGQGTKVEIK
8.1e+09 M⁻¹ | 3.1e-05 s⁻¹ | 250000 M⁻¹ s⁻¹ | reshaped human C21 antibody C21-Hay3/L2 (antibody, V domains shown) VH: QVQLVQSGAEVKKPGASVKVSCKASGYTFSMYWLEWVRQAPGQRLEWMGEISPGTFTTNYNEKFKARATFTADTSASTAYMELSSLRSEDTAVYYCARFSHFSGSNYDYFDYWGQGTLVTVSS VL: DILLTQSPGTLSLSPGERATLSCRASQSIGTNIHWYQQKPGQAPRLLIKYASESISGIPDRFSGSGSGTDFTLTISRLEPEDFAMYYCQQSDSWPTTFGQGTKVEIK
5.7e+09 M⁻¹ | 4.4e-05 s⁻¹ | 250000 M⁻¹ s⁻¹ | reshaped human C21 antibody C21-H3/L2 (antibody, V domains shown) VH: QVQLVQSGAEVKKPGASVKVSCKASGYTFSMYWLEWVRQAPGHGLEWVGEISPGTFTTNYNEKFKARATFTADTSTNTAYMELSSLRSEDTAVYYCARFSHFSG VL: DILLTQSPGTLSLSPGERATLSCRASQSIGTNIHWYQQKPGQAPRLLIKYASESISGIPDRFSGSGSGTDFTLTISRLEPEDFAMYYCQQSDSWPTTFGQGTKVEIK
8.7e+09 M⁻¹ | 3e-05 s⁻¹ | 260000 M⁻¹ s⁻¹ | reshaped human C21 antibody C21-H1/L1 (antibody, V domains shown) VH: QVQLVQSGAEVKKPGASVKVSCKASGYTFSMYWLEWVKQRPGHGLEWVGEISPGTFTTNYNEKFKAKATFTADTSTNTAYMELSSLTSEDTAVYYCARFSHFSG VL: DILLTQSPGTLSLSPGERATLSCRASQSIGTNIHWYQQKPGQAPRLLIKYASESISGIPSRFSGSGSGTDFTLTISRLEPEDFAMYY
1.32e+10 M⁻¹ | 1.9e-05 s⁻¹ | 250000 M⁻¹ s⁻¹ | reshaped human C21 antibody C21-H3/L1 (antibody, V domains shown) VH: QVQLVQSGAEVKKPGASVKVSCKASGYTFSMYWLEWVRQAPGHGLEWVGEISPGTFTTNYNEKFKARATFTADTSTNTAYMELSSLRSEDTAVYYCARFSHFSG VL: DILLTQSPGTLSLSPGERATLSCRASQSIGTNIHWYQQKPGQAPRLLIKYASESISGIPSRFSGSGSGTDFTLTISRLEPEDFAMYY
7.4e+09 M⁻¹ | 3.5e-05 s⁻¹ | 260000 M⁻¹ s⁻¹ | reshaped human C21 antibody C21-H3/L3 (antibody, V domains shown) VH: QVQLVQSGAEVKKPGASVKVSCKASGYTFSMYWLEWVRQAPGHGLEWVGEISPGTFTTNYNEKFKARATFTADTSTNTAYMELSSLRSEDTAVYYCARFSHFSG VL: EIVLTQSPGTLSLSPGERATLSCRASQSIGTNIHWYQQKPGQAPRLLIKYASESISGIPSRFSGSGSGTDFTLTISRLEPEDFAMYYCQQSDSWPTTFGQGTKVEIK
4.9e+09 M⁻¹ | 5.7e-05 s⁻¹ | 280000 M⁻¹ s⁻¹ | reshaped human C21 antibody C21-H1/L2 (antibody, V domains shown) VH: QVQLVQSGAEVKKPGASVKVSCKASGYTFSMYWLEWVKQRPGHGLEWVGEISPGTFTTNYNEKFKAKATFTADTSTNTAYMELSSLTSEDTAVYYCARFSHFSG VL: DILLTQSPGTLSLSPGERATLSCRASQSIGTNIHWYQQKPGQAPRLLIKYASESISGIPDRFSGSGSGTDFTLTISRLEPEDFAMYYCQQSDSWPTTFGQGTKVEIK
6.1e+09 M⁻¹ | 4.1e-05 s⁻¹ | 250000 M⁻¹ s⁻¹ | reshaped human C21 antibody C21-Hay3/L1 (antibody, V domains shown) VH: QVQLVQSGAEVKKPGASVKVSCKASGYTFSMYWLEWVRQAPGQRLEWMGEISPGTFTTNYNEKFKARATFTADTSASTAYMELSSLRSEDTAVYYCARFSHFSGSNYDYFDYWGQGTLVTVSS VL: DILLTQSPGTLSLSPGERATLSCRASQSIGTNIHWYQQKPGQAPRLLIKYASESISGIPSRFSGSGSGTDFTLTISRLEPEDFAMYY

Biological target: human IgE; monoclonal antibody SE44 (human) (UniProt P01854)
Assay: BIAcore, antibody captured by anti-mouse IgG1, IgE SE44 as analyte

Ka | koff | kon | Binder
9.2e+09 M⁻¹ | 2.6e-05 s⁻¹ | 240000 M⁻¹ s⁻¹ | murine monoclonal antibody TES-C21 (antibody, V domains shown) VH: QVQLQQSGAELMKPGASVKISCKTTGYTFSMYWLEWVKQRPGHGLEWVGEISPGTFTTNYNEKFKAKATFTADTSSNTAYLQLSGLTSEDSAVYFCARFSHFSGSNYDYFDYWGQGTSLTVSS VL: DILLTQSPAILSVSPGERVSFSCRASQSIGTNIHWYQQRTDGSPRLLIKYASESISGIPSRFSGSGSGTEFTLNINSVESEDIADYYCQQSDSWPTTFGGGTKLEIK
